Reference: publication PMC9536601, “Binding of adenovirus species C hexon to prothrombin and the influence of hexon on vector properties in vitro and in vivo” (PLoS Pathogens, 2022)

B1: hexon of wild-type human adenovirus type 5 (on virions) (natural protein)
chain: ATPSMMPQWSYMHISGQDASEYLSPGLVQFARATETYFSLNNKFRNPTVAPTHDVTTDRSQRLTLRFIPVDREDTAYSYKARFTLAVGDNRVLDMASTYFDIRGVLDRGPTFKPYSGTAYNALAPKGAPNPCEWDEAATALEINLEEEDDDNEDEVDEQAEQQKTHVFGQAPYSGINITKEGIQIGVEGQTPKYADKTFQPEPQIGESQWYETEINHAAGRVLKKTTPMKPCYGSYAKPTNENGGQGILVKQQNGKLESQVEMQFFSTTEATAGNGDNLTPKVVLYSEDVDIETPDTHISYMPTIKEGNSRELMGQQSMPNRPNYIAFRDNFIGLMYYNSTGNMGVLAGQASQLNAVVDLQDRNTELSYQLLLDSIGDRTRYFSMWNQAVDSYDPDVRIIENHGTEDELPNYCFPLGGVINTETLTKVKPKTGQENGWEKDATEFSDKNEIRVGNNFAMEINLNANLWRNFLYSNIALYLPDKLKYSPSNVKISDNPNTYDYMNKRVVAPGLVDCYINLGARWSLDYMDNVNPFNHHRNAGLRYRSMLLGNGRYVPFHIQVPQKFFAIKNLLLLPGSYTYEWNFRKDVNMVLQSSLGNDLRVDGASIKFDSICLYATFFPMAHNTASTLEAMLRNDTNDQSFNDYLSAANMLYPIPANATNVPISIPSRNWAAFRGWAFTRLKTKETPSLGSGYDPYYTYSGSIPYLDGTFYLNHTFKKVAITFDSSVSWPGNDRLLTPNEFEIKRSVDGEGYNVAQCNMTKDWFLVQMLANYNIGYQGFYIPESYKDRMYSFFRNFQPMSRQVVDDTKYKDYQQVGILHQHNNSGFVGYLAPTMREGQAYPANFPYPLIGKTAVDSITQKKFLCDRTLWRIPFSSNFMSMGALTDLGQNLLYANSAHALDMTFEVDPMDEPTLLYVLFEVFDVVRVHRPHRGVIETVYLRTPFSAGNATT
notes: hexon of human adenovirus type 5 (species C), whole hexon as it stands in the capsid of the virion; Immobilised as whole virions; also called Ad5; source: wild-type virus from ATCC, grown on 293 cells, virions purified by CsCl ultracentrifugation
B2: bovine prothrombin (coagulation factor II) (natural protein)
chain: not shown
modifications: gamma-carboxylated glutamate residues in the Gla domain
notes: prothrombin (FII), bovine, plasma-derived; also called bovine FII; source: bought: Haematologic Technologies, Inc. (BCP-1010), plasma-derived
B3: hexon of wild-type human adenovirus type 2 (on virions) (natural protein)
chain: MATPSMMPQWSYMHISGQDASEYLSPGLVQFARATETYFSLNNKFRNPTVAPTHDVTTDRSQRLTLRFIPVDREDTAYSYKARFTLAVGDNRVLDMASTYFDIRGVLDRGPTFKPYSGTAYNALAPKGAPNSCEWEQTEDSGRAVAEDEEEEDEDEEEEEEEQNARDQATKKTHVYAQAPLSGETITKSGLQIGSDNAETQAKPVYADPSYQPEPQIGESQWNEADANAAGGRVLKKTTPMKPCYGSYARPTNPFGGQSVLVPDEKGVPLPKVDLQFFSNTTSLNDRQGNATKPKVVLYSEDVNMETPDTHLSYKPGKGDENSKAMLGQQSMPNRPNYIAFRDNFIGLMYYNSTGNMGVLAGQASQLNAVVDLQDRNTELSYQLLLDSIGDRTRYFSMWNQAVDSYDPDVRIIENHGTEDELPNYCFPLGGIGVTDTYQAIKANGNGSGDNGDTTWTKDETFATRNEIGVGNNFAMEINLNANLWRNFLYSNIALYLPDKLKYNPTNVEISDNPNTYDYMNKRVVAPGLVDCYINLGARWSLDYMDNVNPFNHHRNAGLRYRSMLLGNGRYVPFHIQVPQKFFAIKNLLLLPGSYTYEWNFRKDVNMVLQSSLGNDLRVDGASIKFDSICLYATFFPMAHNTASTLEAMLRNDTNDQSFNDYLSAANMLYPIPANATNVPISIPSRNWAAFRGWAFTRLKTKETPSLGSGYDPYYTYSGSIPYLDGTFYLNHTFKKVAITFDSSVSWPGNDRLLTPNEFEIKRSVDGEGYNVAQCNMTKDWFLVQMLANYNIGYQGFYIPESYKDRMYSFFRNFQPMSRQVVDDTKYKEYQQVGILHQHNNSGFVGYLAPTMREGQAYPANVPYPLIGKTAVDSITQKKFLCDRTLWRIPFSSNFMSMGALTDLGQNLLYANSAHALDMTFEVDPMDEPTLLYVLFEVFDVVRVHQPHRGVIETVYLRTPFSAGNATT
notes: hexon of human adenovirus type 2 (species C), whole hexon as it stands in the capsid of the virion; Immobilised as whole virions; also called Ad2; source: wild-type virus from ATCC, grown on 293 cells, virions purified by CsCl ultracentrifugation

Assays:
[1] = target: T1, human prothrombin (coagulation factor II) (human, UniProt P00734 44-622, gamma-carboxylated glutamate residues in the Gla domain); assay: SPR; Biacore T200; about 300 to 5,000 RU of Ad virions immobilised on a CM5 chip, coagulation factors flowed over at four concentrations, 50 uL/min; running buffer 10 mM HEPES, 150 mM NaCl, 1 mM CaCl2, 0.5 mM MgCl2, 0.1% BSA, 0.05% polysorbate 20, pH 7.4; regeneration with 3 mM EDTA; global fit to a 1:1 kinetic interaction model, double referencing; conditions: both partners purified
T1 construct: prothrombin (FII), human, plasma-derived; also called human FII; FII; source: bought: Haematologic Technologies, Inc. (HCP-0010), plasma-derived

[2] = target: B3; assay: as above; conditions: both partners purified

Which results are given for B1?
Kd [1]: 39 nM; koff [1]: 0.00321 s⁻¹; kon [1]: 83500 M⁻¹ s⁻¹

How did the Kd [2] turn out when B2 was run?
The Kd was 140 nM.

What about the koff [2] of the same binder?
The koff was 0.00531 s⁻¹.

And the kon [2]?
Its kon is 37800 M⁻¹ s⁻¹.

What does the source list for B3?
Kd [1]: 4.5 nM; koff [1]: 0.000393 s⁻¹; kon [1]: 87400 M⁻¹ s⁻¹
